Reference: the supplement of paper PMC6757056
± gives the standard deviation of the averaged measurements.

B1: library; a variant is named by its letters at N, in order (parent)
chain: GCUGUCACCGAGAAACUGUGAAGUAUAUCUUAAACCUGGGCACUUAAAAGAUAUAUGGAGUUAGUAGUGCAACCUGCUCGGUCUGAUGAGUCCNNNNNNGGACGAAACAGC

Tests used:
cyclic di-GMP [1] = variants of: B1; test: normalized RNA/DNA level without ligand (relative to sTRSVctl = 100) (log10 (% of sTRSVctl)); HEK293T; ligand: cyclic di-GMP (c-di-GMP-II aptamer); higher = less ribozyme self-cleavage, higher mRNA level; conditions: reporter: mCherry (pCS4076), ligand present: no
Summary of the method: (§1)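 Ribozyme switch library plasmids linked to reporters were introduced into HEK293T cells at 4 µg per 6-well well, with ligand, if any, added 1 h before. Total RNA was extracted with EDTA 72 h later, reverse-transcribed, amplified, barcoded and sequenced. RNA level was computed from RNA over DNA reads relative to a spiked-in non-cleaving sequence or the top sequences, then scaled and log-transformed. The top set was 25 sequences, values were ×100 and log10, and the cutoff was ≥100 DNA reads.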

cyclic di-GMP [2] = variants of: B1; test: normalized RNA/DNA level with ligand (relative to sTRSVctl = 100) (log10 (% of sTRSVctl)); HEK293T; ligand: cyclic di-GMP (c-di-GMP-II aptamer); ligand concentration (+) RNA-Seq: 1 mM; higher = less ribozyme self-cleavage, higher mRNA level; conditions: reporter: mCherry (pCS4076), ligand present: yes
Summary of the method: as §1

Variant	normalized RNA/DNA level without ligand (log10) (cyclic di-GMP [1])	normalized RNA/DNA level with ligand (log10) (cyclic di-GMP [2])
GCUGUCACCGAGAAACUGUGAAGUAUAUCUUAAACCUGGGCACUUAAAAGAUAUAUGGAGUUAGUAGUGCAACCUGCUCGGUCUGAUGAGUCCUAGAGGGGACGAAACAGC	1.67 ± 0.087	1.82 ± 0.1
GCUGUCACCGAGAAACUGUGAAGUAUAUCUUAAACCUGGGCACUUAAAAGAUAUAUGGAGUUAGUAGUGCAACCUGCUCGGUCUGAUGAGUCCUAGAGCGGACGAAACAGC	1.712 ± 0.005	1.85 ± 0.047
GCUGUCACCGAGAAACUGUGAAGUAUAUCUUAAACCUGGGCACUUAAAAGAUAUAUGGAGUUAGUAGUGCAACCUGCUCGGUCUGAUGAGUCCUAGAGUGGACGAAACAGC	1.56 ± 0.066	1.73 ± 0.067
GCUGUCACCGAGAAACUGUGAAGUAUAUCUUAAACCUGGGCACUUAAAAGAUAUAUGGAGUUAGUAGUGCAACCUGCUCGGUCUGAUGAGUCCAAGAGUGGACGAAACAGC	1.5 ± 0.035	1.71 ± 0.12
GCUGUCACCGAGAAACUGUGAAGUAUAUCUUAAACCUGGGCACUUAAAAGAUAUAUGGAGUUAGUAGUGCAACCUGCUCGGUCUGAUGAGUCCUAGAUUGGACGAAACAGC	1.6 ± 0.028	1.79 ± 0.067
GCUGUCACCGAGAAACUGUGAAGUAUAUCUUAAACCUGGGCACUUAAAAGAUAUAUGGAGUUAGUAGUGCAACCUGCUCGGUCUGAUGAGUCCUAGAUCGGACGAAACAGC	1.595 ± 0.014	1.82 ± 0.056
GCUGUCACCGAGAAACUGUGAAGUAUAUCUUAAACCUGGGCACUUAAAAGAUAUAUGGAGUUAGUAGUGCAACCUGCUCGGUCUGAUGAGUCCUAGAUAGGACGAAACAGC	1.614 ± 0.012	1.78 ± 0.11
GCUGUCACCGAGAAACUGUGAAGUAUAUCUUAAACCUGGGCACUUAAAAGAUAUAUGGAGUUAGUAGUGCAACCUGCUCGGUCUGAUGAGUCCCAGAGGGGACGAAACAGC	1.64 ± 0.069	1.8 ± 0.046
GCUGUCACCGAGAAACUGUGAAGUAUAUCUUAAACCUGGGCACUUAAAAGAUAUAUGGAGUUAGUAGUGCAACCUGCUCGGUCUGAUGAGUCCCAGAGUGGACGAAACAGC	1.652 ± 0.0071	1.86 ± 0.11
GCUGUCACCGAGAAACUGUGAAGUAUAUCUUAAACCUGGGCACUUAAAAGAUAUAUGGAGUUAGUAGUGCAACCUGCUCGGUCUGAUGAGUCCGAGAUGGGACGAAACAGC	1.748 ± 0.0058	1.83 ± 0.071
GCUGUCACCGAGAAACUGUGAAGUAUAUCUUAAACCUGGGCACUUAAAAGAUAUAUGGAGUUAGUAGUGCAACCUGCUCGGUCUGAUGAGUCCGAGAUAGGACGAAACAGC	1.69 ± 0.015	1.76 ± 0.099
GCUGUCACCGAGAAACUGUGAAGUAUAUCUUAAACCUGGGCACUUAAAAGAUAUAUGGAGUUAGUAGUGCAACCUGCUCGGUCUGAUGAGUCCGAGAUCGGACGAAACAGC	1.711 ± 0.0023	1.81 ± 0.11
GCUGUCACCGAGAAACUGUGAAGUAUAUCUUAAACCUGGGCACUUAAAAGAUAUAUGGAGUUAGUAGUGCAACCUGCUCGGUCUGAUGAGUCCUAGCAAGGACGAAACAGC	1.716 ± 0.0099	1.84 ± 0.087
GCUGUCACCGAGAAACUGUGAAGUAUAUCUUAAACCUGGGCACUUAAAAGAUAUAUGGAGUUAGUAGUGCAACCUGCUCGGUCUGAUGAGUCCUAGCACGGACGAAACAGC	1.708 ± 0.0035	1.83 ± 0.095
GCUGUCACCGAGAAACUGUGAAGUAUAUCUUAAACCUGGGCACUUAAAAGAUAUAUGGAGUUAGUAGUGCAACCUGCUCGGUCUGAUGAGUCCAAGAUUGGACGAAACAGC	1.63 ± 0.043	1.8 ± 0.054
GCUGUCACCGAGAAACUGUGAAGUAUAUCUUAAACCUGGGCACUUAAAAGAUAUAUGGAGUUAGUAGUGCAACCUGCUCGGUCUGAUGAGUCCAAGAUGGGACGAAACAGC	1.49 ± 0.055	1.71 ± 0.075
GCUGUCACCGAGAAACUGUGAAGUAUAUCUUAAACCUGGGCACUUAAAAGAUAUAUGGAGUUAGUAGUGCAACCUGCUCGGUCUGAUGAGUCCAAGAUCGGACGAAACAGC	1.6 ± 0.084	1.74 ± 0.097
GCUGUCACCGAGAAACUGUGAAGUAUAUCUUAAACCUGGGCACUUAAAAGAUAUAUGGAGUUAGUAGUGCAACCUGCUCGGUCUGAUGAGUCCCAGAUCGGACGAAACAGC	1.61 ± 0.03	1.71 ± 0.18
GCUGUCACCGAGAAACUGUGAAGUAUAUCUUAAACCUGGGCACUUAAAAGAUAUAUGGAGUUAGUAGUGCAACCUGCUCGGUCUGAUGAGUCCCAGAUUGGACGAAACAGC	1.48 ± 0.11	1.65 ± 0.1
GCUGUCACCGAGAAACUGUGAAGUAUAUCUUAAACCUGGGCACUUAAAAGAUAUAUGGAGUUAGUAGUGCAACCUGCUCGGUCUGAUGAGUCCCAGAUGGGACGAAACAGC	1.63 ± 0.0074	1.75 ± 0.13
GCUGUCACCGAGAAACUGUGAAGUAUAUCUUAAACCUGGGCACUUAAAAGAUAUAUGGAGUUAGUAGUGCAACCUGCUCGGUCUGAUGAGUCCGAGCACGGACGAAACAGC	1.82 ± 0.053	1.87 ± 0.077
GCUGUCACCGAGAAACUGUGAAGUAUAUCUUAAACCUGGGCACUUAAAAGAUAUAUGGAGUUAGUAGUGCAACCUGCUCGGUCUGAUGAGUCCGAGCAAGGACGAAACAGC	1.76 ± 0.023	1.83 ± 0.12
GCUGUCACCGAGAAACUGUGAAGUAUAUCUUAAACCUGGGCACUUAAAAGAUAUAUGGAGUUAGUAGUGCAACCUGCUCGGUCUGAUGAGUCCCAGCACGGACGAAACAGC	1.65 ± 0.067	1.79 ± 0.025
GCUGUCACCGAGAAACUGUGAAGUAUAUCUUAAACCUGGGCACUUAAAAGAUAUAUGGAGUUAGUAGUGCAACCUGCUCGGUCUGAUGAGUCCGAGAGUGGACGAAACAGC	1.65 ± 0.0094	1.8 ± 0.1
GCUGUCACCGAGAAACUGUGAAGUAUAUCUUAAACCUGGGCACUUAAAAGAUAUAUGGAGUUAGUAGUGCAACCUGCUCGGUCUGAUGAGUCCGAGAGGGGACGAAACAGC	1.746 ± 0.016	1.82 ± 0.11
GCUGUCACCGAGAAACUGUGAAGUAUAUCUUAAACCUGGGCACUUAAAAGAUAUAUGGAGUUAGUAGUGCAACCUGCUCGGUCUGAUGAGUCCGAGAGCGGACGAAACAGC	1.71 ± 0.02	1.85 ± 0.12
